{
  "source": "patent US6339070B1",
  "about": "“Gene construct encoding a heterologous prodrug-activating enzyme and a cell targeting moiety” (Zeneca Limited, priority 1997, dated 2002)",
  "molecules": {"B1": {"name": "(A5B7 Fab-CPG2)2 fusion protein: chimaeric A5B7 anti-CEA Fab, heavy chain Fd linked via (G4S)3 linker to CPG2 R6, dimerised through CPG2 (antibody)", "heavy": "EVKLVESGGGLVQPGGSLRLSCATSGFTFTDYYMNWVRQPPGKALEWLGFIGNKANGYTTEYSASVKGRFTISRDKSQSILYLQMNTLRAEDSATYYCTRDRGLRFYFDYWGQGTTLTVSSASTKGPSVFPLAPCSRSTSESTAALGCLVKDYFPEPVTVSWNSGALTSGVHTFPAVLQSSGLYSLSSVVTVPSSNFGTQTYTCNVDHKPSNTKVDKTVGGGGSGGGGSGGGGSQKRDNVLFQAATDEQPAVIKTLEKLVNIETGTGDAEGIAAAGNFLEAELKNLGFTVTRSKSAGLVVGDNIVGKIKGRGGKNLLLMSHMDTVYLKGILAKAPFRVEGDKAYGPGIADDKGGNAVILHTLKLLKEYGVRDYGTITVLFNTDEEKGSFGSRDLIQEEAKLADYVLSFEPTSAGDEKLSLGTSGIAYVQVQITGKASHAGAAPELGVNALVEASDLVLRTMNIDDKAKNLRFQWTIAKAGQVSNIIPASATLNADVRYARNEDFDAAMKTLEERAQQKKLPEADVKVIVTRGRPAFNAGEGGKKLVDKAVAYYKEAGGTLGVEERTGGGTDAAYAALSGKPVIESLGLPGFGYHSDKAEYVDISAIPRRLYMAARLIMDLGAGK", "light": "QTVLSQSPAILSASPGEKVTMTCRASSSVTYIHWYQQKPGSSPKSWIYATSNLASGVPARFSGSGSGTSYSLTISRVEAEDAATYYCQHWSSKPPTFGGGTKLEIKRTVAAPSVFIFPPSDEQLKSGTASVVCLLNNFYPREAKVQWKVDNALQSGNSQESVTEQDSKDSTYSLSSTLTLSKADYEKHKVYACEVTHQGLSSPVTKSFNRGEC"}},
  "key": {"[1]": {"experiment": "Enzyme activity in plasma samples (methotrexate turnover, HPLC)", "assay_type": "in vivo", "details": "except when tumour enzyme activity exceeded 2.0 U/g", "experimental": "To act as a standard for the assay, a CPG2 enzyme standard curve was prepared in 20% normal plasma to the following concentrations: 0.2, 0.4, 0.6, 0.8 and 1.0 U/ml. Similarly all test plasma samples were also diluted to 20% normal plasma. Further dilutions of these samples e.g. neat 1/10, 1/20 and 1/50 were also made using 20% normal serum. 200 μl aliquots of each CPG2 standard and test sample dilutions were equilibrated to 30°. 2 μl of 10 mM MTX was added to each of the tubes and mixed well. […]. The reaction was stopped after exactly 10 minutes (to increase the sensitivity of the assay the incubation time can be increased to 30 minutes) by adding 500 μl ice cold methanol+0.2% TFA and assayed for product using HPLC detection as described above in Example 10."}, "[2]": {"biological_target": "T1, human carcinoembryonic antigen (CEA) (Homo sapiens, UniProt P06731)", "T1 sequence (P06731 35-676)": "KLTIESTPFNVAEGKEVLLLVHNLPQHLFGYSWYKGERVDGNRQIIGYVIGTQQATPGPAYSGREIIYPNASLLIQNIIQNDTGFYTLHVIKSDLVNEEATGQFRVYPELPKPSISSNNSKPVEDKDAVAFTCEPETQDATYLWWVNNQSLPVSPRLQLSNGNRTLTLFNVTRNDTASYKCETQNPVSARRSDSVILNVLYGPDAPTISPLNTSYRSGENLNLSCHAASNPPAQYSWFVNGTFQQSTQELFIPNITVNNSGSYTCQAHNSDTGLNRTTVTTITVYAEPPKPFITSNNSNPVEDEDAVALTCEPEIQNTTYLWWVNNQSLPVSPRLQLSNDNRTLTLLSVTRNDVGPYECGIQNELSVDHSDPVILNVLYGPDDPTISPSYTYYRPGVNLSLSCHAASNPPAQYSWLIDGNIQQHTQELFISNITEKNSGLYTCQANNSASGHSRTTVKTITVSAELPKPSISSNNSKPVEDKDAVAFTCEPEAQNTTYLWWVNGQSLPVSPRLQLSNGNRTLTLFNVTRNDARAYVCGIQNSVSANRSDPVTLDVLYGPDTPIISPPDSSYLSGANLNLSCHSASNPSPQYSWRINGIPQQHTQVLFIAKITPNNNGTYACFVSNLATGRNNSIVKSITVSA", "experiment": "CEA-binding ELISA, anti human kappa light chain reporter antibody", "details": "COS-7 transient expression supernatant", "experimental": "For the CEA ELISA each well of a 96 well immunoplate (NUNC MAXISORB™) was coated with 50 ng CEA in 50 mM carbonate/bicarbonate coating buffer pH9.6 (buffer capsules—Sigma C3041) and incubated at 4° overnight. The plate was washed three times with PBS-TWEEN™ (PBS+0.05% TWEEN™ 20) and then blocked 150 μl per well of 1% BSA in PBS-TWEEN™ for 1 hour at room temperature. The plate was washed three times with PBS-TWEEN™, 100 μl of test sample added per well and incubated at room temperature for 2 hours. The plate was washed three times with PBS-TWEEN™, 100 μl per well of a 1/500 dilution of HRPO-labelled goat anti-human kappa antibody (Sigma A 7164) was added in 1% BSA in PBS-TWEEN™ and incubated at room temperature on a rocking platform for at least 1 hour. The plate was washed three times with PBS-TWEEN™ and then once more with PBS. To detect binding, add 100 μl per well of developing solution (one capsule of phosphate-citrate buffer—Sigma P4922—dissolved in 100 ml H2O to which is added one 30 mg tablet o-phenylenediamine dihydrochloride—Sigma P8412) and incubated for up to 15 minutes. The reaction was stopped by adding 75 μl 2M H2SO4, and absorbance read at 490 nm."}, "[3]": {"test_system": "LoVo, CEA bearing, tumour cells", "experiment": "In vitro cell killing assay: cell-bound fusion protein plus PGP prodrug, SRB stain", "assay_type": "cell-based", "details": "unbound protein washed off, PGP 1 hr, 4 days proliferation", "experimental": "An in vitro cell killing assay was performed in which the (A5B7-CPG2 R6)2 fusion protein was compared to a “conventional” A5B7 F(ab′)2-CPG2 conjugate formed through linking A5B7 F(ab′)2 to CPG2 with a chemical heterobifunctional reagent. […] The cells were then washed to remove unbound protein material and subsequently resuspended in medium containing a CPG2 phenol prodrug (PGP, see Example 2 below) for a period of 1 hr, after which the cells were washed, resuspended in fresh media and left to proliferate for 4 days. Finally the cells were treated with SRB stain and their numbers determined."}, "[4]": {"test_system": "CEA positive LoVo parental line", "experiment": "Cell based ELISA of secreted fusion protein, CEA positive cells", "details": "increasing amounts of added fusion protein, listed as (A5B7-CPG2)2 fusion protein", "experimental": "Cells were seeded into 96 well plates (Becton Dickinson Biocoat™ poly-D-Lysine, 35-6461) at a density of 1×10^4 cells per well in 100 μl normal culture media and left about 40 h at 37°. 100 μl of 6% formaldehyde was diluted in DMEM and left for 1 hour at 4°. Plates were centrifuged and washed 3 times in PBS containing 0.05% Tween™ by immersion soaking (first two washes for 2 minutes and the final wash for 5 minutes).\n100 μl of doubling dilutions of cell culture supernatant containing fusion protein or chimeric A5B7 anti-CEA were added to each well as appropriate and the plates incubated overnight at 4°. The plates were washed as described above and, in the case of chimaeric fusion proteins. 100 μl of 1:1000 dilution of HRP labelled anti-human kappa antibody (Sigma A-7164) was added and incubated for 2 hours at room temperature (an anti-CPG2 detection methodology can be used in the case of murine scFv fusion proteins). The plates were washed as described above and HRP detected using OPD substrate (Sigma P-8412). Colour was allowed to develop for about 5 min, stopped with 75 μl per well of 2M H2SO4 and OD read at 490 nm.\nIn the case of the (A5B7-CPG2)2 fusion protein, material was produced in the supernatant from recombinant Colo32ODM tumour cells (CEA-ve). The fusion protein content was measured by use of the CEA ELISAs described above. […]"}},
  "note": "“Also recorded” adds a separate entry of the source.",
  "data": [
    {"molecule": "B1", "values": [
      {"measurement": "enzyme activity in plasma", "setting": "[1]", "result": "No activity was seen in the plasma"},
      {"measurement": "CEA binding in anti-CEA ELISA", "setting": "[2]", "result": "binding of protein at levels commensurate with a bivalent A5B7 antibody molecule"},
      {"measurement": "cell kill with PGP prodrug compared with equivalent levels of A5B7 F(ab)2-CPG2 conjugate", "setting": "[3]", "result": "at least equivalent cell kill"},
      {"measurement": "binding to CEA positive cells (OD 490 nm)", "setting": "[4]", "result": "increased levels of binding with increasing amounts of added fusion protein; also recorded: binds specifically to a CEA positive cell line in a dose dependant manner"}
    ]}
  ]
}
